Assay results as given in patent publication US20220010008A1.
“And” between values parts separate entries of the source, which are not always exact repeats. Identical values can stand only once. Blank lines part the entries; values can stand above or below the binder they belong to.

How the values were obtained:
[1] = target: recombinant human IL-5 protein (human) (UniProt P05113); test: FACS blocking: biotin-IL-5 bound to CHOK1 IL-5Ra/CSF2RB cells, Ab 6.6667 nM
[2] = target: recombinant human IL-5 protein (human) (UniProt P05113); test: cell-based or functional assay
[3] = target: recombinant human IL-5 protein (human) (UniProt P05113); test: FACS blocking: biotin-IL-5 bound to CHOK1 IL-5Ra/CSF2RB cells, Ab 1.3333 nM
[4] = target: recombinant human IL-5 protein (human) (UniProt P05113); test: ELISA, biotin-human IL-5 on streptavidin plate, Ab 0.5333 nM
[5] = target: recombinant human IL-5 protein (human) (UniProt P05113); test: FACS blocking: biotin-IL-5 bound to CHOK1 IL-5Ra/CSF2RB cells, Ab 0.0021 nM
[6] = target: recombinant human IL-5 protein (human) (UniProt P05113); test: FACS blocking: biotin-IL-5 bound to CHOK1 IL-5Ra/CSF2RB cells, Ab 0.2667 nM
[7] = target: recombinant human IL-5 protein (human) (UniProt P05113); test: SPR, human IL-5 immobilized on CM5 chip, chimeric antibody as analyte, 1:1 global fit
[8] = target: recombinant human IL-5 protein (human) (UniProt P05113); test: ELISA, biotin-human IL-5 on streptavidin plate, Ab 0.0009 nM
[9] = target: recombinant human IL-5 protein (human) (UniProt P05113); test: ELISA, biotin-human IL-5 on streptavidin plate, Ab 0.0043 nM
[10] = target: recombinant human IL-5 protein (human) (UniProt P05113); test: ELISA, biotin-human IL-5 on streptavidin plate, Ab 13.3333 nM
[11] = target: recombinant human IL-5 protein (human) (UniProt P05113); test: FACS blocking: biotin-IL-5 bound to CHOK1 IL-5Ra/CSF2RB cells, Ab 0.0533 nM
[12] = target: recombinant human IL-5 protein (human) (UniProt P05113); test: FACS blocking: biotin-IL-5 bound to CHOK1 IL-5Ra/CSF2RB cells, Ab 33.3333 nM
[13] = target: recombinant human IL-5 protein (human) (UniProt P05113); test: ELISA, biotin-human IL-5 on streptavidin plate, Ab 2.6667 nM
[14] = target: recombinant human IL-5 protein (human) (UniProt P05113); test: ELISA, biotin-human IL-5 on streptavidin plate, Ab 0.0213 nM
[15] = target: recombinant human IL-5 protein (human) (UniProt P05113); test: FACS blocking: biotin-IL-5 bound to CHOK1 IL-5Ra/CSF2RB cells, Ab 0.0004 nM
[16] = target: recombinant human IL-5 protein (human) (UniProt P05113); test: FACS blocking: biotin-IL-5 bound to CHOK1 IL-5Ra/CSF2RB cells, Ab 0.0107 nM
[17] = target: recombinant human IL-5 protein (human) (UniProt P05113); test: ELISA, biotin-human IL-5 on streptavidin plate, Ab 0.1067 nM
[18] = target: recombinant human IL-5 protein (human) (UniProt P05113); test: ELISA, biotin-human IL-5 on streptavidin plate, Ab 0.0002 nM
[19] = target: recombinant human IL-5 protein with His tag (human) (UniProt P05113); test: ELISA, biotin-human IL-5 on streptavidin; antibody 13.3333 nM
[20] = target: recombinant human IL-5 protein with His tag (human) (UniProt P05113); test: ELISA, biotin-human IL-5 on streptavidin; antibody 0.0009 nM
[21] = target: recombinant human IL-5 protein with His tag (human) (UniProt P05113); test: ELISA, biotin-human IL-5 on streptavidin; antibody 0.5333 nM
[22] = target: recombinant human IL-5 protein with His tag (human) (UniProt P05113); test: ELISA, biotin-human IL-5 on streptavidin; antibody 0.0043 nM
[23] = target: recombinant human IL-5 protein with His tag (human) (UniProt P05113); test: ELISA, biotin-human IL-5 on streptavidin; antibody 0.0213 nM
[24] = target: recombinant human IL-5 protein with His tag (human) (UniProt P05113); test: ELISA, biotin-human IL-5 on streptavidin; antibody 0.1067 nM
[25] = target: recombinant human IL-5 protein with His tag (human) (UniProt P05113); test: ELISA, biotin-human IL-5 on streptavidin; antibody 2.6667 nM
[26] = target: recombinant human IL-5 protein with His tag (human) (UniProt P05113); test: ELISA, biotin-human IL-5 on streptavidin; antibody 0.0002 nM

Fluorescence intensity [1]: 33 MFI | RLU, CTLL-2 proliferation with IL-5, Ab 0.000170667 nM [2]: 47900 RLU and 63200 RLU | RLU, CTLL-2 proliferation with IL-5, Ab 0.000853333 nM [2]: 54300 RLU and 63000 RLU | RLU, CTLL-2 proliferation with IL-5, Ab 0.004266667 nM [2]: 51200 RLU and 58000 RLU | RLU, CTLL-2 proliferation with IL-5, Ab 0.02133333 nM [2]: 41700 RLU and 43900 RLU | RLU, CTLL-2 proliferation with IL-5, Ab 0.1066667 nM [2]: 10900 RLU and 10300 RLU | RLU, CTLL-2 proliferation with IL-5, Ab 0.5333334 nM [2]: 8370 RLU and 8250 RLU | RLU, CTLL-2 proliferation with IL-5, Ab 2.666667 nM [2]: 6580 RLU and 7940 RLU | RLU, CTLL-2 proliferation with IL-5, Ab 13.33333 nM [2]: 5750 RLU and 5810 RLU | RLU, CTLL-2 proliferation with IL-5, Ab 66.66666 nM [2]: 3690 RLU and 4030 RLU | RLU, CTLL-2 proliferation with IL-5, Ab 3.41333E-05 nM [2]: 46800 RLU and 55000 RLU | RLU, TF-1 proliferation with IL-5, Ab 0.00001 nM [2]: 95500 RLU and 93900 RLU | RLU, TF-1 proliferation with IL-5, Ab 0.00003 nM [2]: 89800 RLU and 92600 RLU | RLU, TF-1 proliferation with IL-5, Ab 0.00017 nM [2]: 76600 RLU and 80400 RLU | RLU, TF-1 proliferation with IL-5, Ab 0.00085 nM [2]: 66300 RLU and 74200 RLU | RLU, TF-1 proliferation with IL-5, Ab 0.00427 nM [2]: 41500 RLU and 46000 RLU | RLU, TF-1 proliferation with IL-5, Ab 0.02133 nM [2]: 38600 RLU and 44100 RLU | RLU, TF-1 proliferation with IL-5, Ab 0.10667 nM [2]: 41600 RLU and 38800 RLU | RLU, TF-1 proliferation with IL-5, Ab 0.53333 nM [2]: 36400 RLU and 36800 RLU | RLU, TF-1 proliferation with IL-5, Ab 2.66667 nM [2]: 38400 RLU and 36800 RLU | RLU, TF-1 proliferation with IL-5, Ab 13.33333 nM [2]: 36200 RLU and 33500 RLU | Fluorescence intensity [3]: 41 MFI | OD450 nm [4]: 3.03 OD450 nm and 2.93 OD450 nm | Fluorescence intensity [5]: 90 MFI | Fluorescence intensity [6]: 68 MFI | Kd [7]: < 0.0637 nM | koff [7]: < 1e-05 s⁻¹ | kon [7]: 157000 M⁻¹ s⁻¹ | OD450 nm [8]: 0.127 OD450 nm and 0.114 OD450 nm | OD450 nm [9]: 0.194 OD450 nm and 0.244 OD450 nm | OD450 nm [10]: 3.7 OD450 nm and 3.52 OD450 nm | Fluorescence intensity [11]: 82 MFI | Fluorescence intensity [12]: 28 MFI | OD450 nm [13]: 3.47 OD450 nm and 3.5 OD450 nm | OD450 nm [14]: 0.622 OD450 nm and 0.678 OD450 nm | Fluorescence intensity [15]: 95 MFI | Fluorescence intensity [16]: 85 MFI | OD450 nm [17]: 1.87 OD450 nm and 1.92 OD450 nm | OD450 nm [18]: 0.098 OD450 nm and 0.127 OD450 nm
B1: 151G3B11 mouse-human chimeric antibody (antibody, human IgG4, V domains shown)
VH: EVHLQQSGAELVKPGASVKLSCTASGFNIKDYYMHWVKQRTEQGLEWIGRIDPEDGETKYAPKFQGQATITADTSSNTANLQLSSLTSEDTAVYYCARYGNFPDYWGPGTTLTVSS
VL: QIVLTQSPALMSASPGEKVTMTCSASSSVSYMYWYQQKPRSSPKPWIYLTSKLASGVPARFSGSGSGTSYSLTISSMEAEDAATYYCQQWNSNPYTFGGGTKLEIK

Fluorescence intensity [1]: 39 MFI | RLU, CTLL-2 proliferation with IL-5, Ab 0.000170667 nM [2]: 59900 RLU and 54900 RLU | RLU, CTLL-2 proliferation with IL-5, Ab 0.000853333 nM [2]: 59800 RLU and 56700 RLU | RLU, CTLL-2 proliferation with IL-5, Ab 0.004266667 nM [2]: 64400 RLU and 61300 RLU | RLU, CTLL-2 proliferation with IL-5, Ab 0.02133333 nM [2]: 62100 RLU and 59300 RLU | RLU, CTLL-2 proliferation with IL-5, Ab 0.1066667 nM [2]: 54800 RLU and 52000 RLU | RLU, CTLL-2 proliferation with IL-5, Ab 0.5333334 nM [2]: 44900 RLU and 38200 RLU | RLU, CTLL-2 proliferation with IL-5, Ab 2.666667 nM [2]: 28000 RLU and 25400 RLU | RLU, CTLL-2 proliferation with IL-5, Ab 13.33333 nM [2]: 16200 RLU and 17000 RLU | RLU, CTLL-2 proliferation with IL-5, Ab 66.66666 nM [2]: 12200 RLU and 12400 RLU | RLU, CTLL-2 proliferation with IL-5, Ab 3.41333E-05 nM [2]: 60700 RLU and 50200 RLU | RLU, TF-1 proliferation with IL-5, Ab 0.00001 nM [2]: 110000 RLU and 113000 RLU | RLU, TF-1 proliferation with IL-5, Ab 0.00003 nM [2]: 111000 RLU and 109000 RLU | RLU, TF-1 proliferation with IL-5, Ab 0.00017 nM [2]: 111000 RLU | RLU, TF-1 proliferation with IL-5, Ab 0.00085 nM [2]: 109000 RLU and 108000 RLU | RLU, TF-1 proliferation with IL-5, Ab 0.00427 nM [2]: 109000 RLU and 114000 RLU | RLU, TF-1 proliferation with IL-5, Ab 0.02133 nM [2]: 99100 RLU and 101000 RLU | RLU, TF-1 proliferation with IL-5, Ab 0.10667 nM [2]: 81400 RLU and 82800 RLU | RLU, TF-1 proliferation with IL-5, Ab 0.53333 nM [2]: 60400 RLU and 56800 RLU | RLU, TF-1 proliferation with IL-5, Ab 2.66667 nM [2]: 45200 RLU and 42600 RLU | RLU, TF-1 proliferation with IL-5, Ab 13.33333 nM [2]: 38500 RLU and 40000 RLU | Fluorescence intensity [3]: 46 MFI | OD450 nm [4]: 1.93 OD450 nm and 2 OD450 nm | Fluorescence intensity [5]: 88 MFI | Fluorescence intensity [6]: 67 MFI | Kd [7]: 0.188 nM | koff [7]: 5.24e-05 s⁻¹ | kon [7]: 279000 M⁻¹ s⁻¹ | OD450 nm [8]: 0.081 OD450 nm and 0.087 OD450 nm | OD450 nm [9]: 0.108 OD450 nm and 0.106 OD450 nm | OD450 nm [10]: 3.7 OD450 nm and 3.71 OD450 nm | Fluorescence intensity [11]: 87 MFI | Fluorescence intensity [12]: 35 MFI | OD450 nm [13]: 2.96 OD450 nm and 3.01 OD450 nm | OD450 nm [14]: 0.224 OD450 nm and 0.221 OD450 nm | Fluorescence intensity [15]: 91 MFI | Fluorescence intensity [16]: 88 MFI | OD450 nm [17]: 0.716 OD450 nm and 0.77 OD450 nm | OD450 nm [18]: 0.083 OD450 nm and 0.098 OD450 nm
B2: 154F10G8 mouse-human chimeric antibody (antibody, human IgG4, V domains shown)
VH: QVQLQQPGAELVKPGASVKLSCKASGYTFTSYWITWVKQRPGQGLEWIGDIYPGSGSTFYNEKFKSEATLTVDTSSSTAYMQLSSLTSEDSAVFYCSTETTLGYWGQGTTLTVSS
VL: DVLMTQTPLSLPVSLGDQASISCRSSQSIVHNNGNTYLEWYLQKPGQSPKLLIYKVSNRFSGVPDRFSGSGSGTDFTLKISRVEAEDLGVYYCFQGSHVPFTFGSGTKLEIK

OD450 nm [19]: 3.3 and 3.49 | OD450 nm [20]: 0.093 and 0.092 | OD450 nm [21]: 2.76 and 2.69 | OD450 nm [22]: 0.205 and 0.193 | OD450 nm [23]: 0.595 and 0.64 | OD450 nm [24]: 1.69 and 1.71 | OD450 nm [25]: 3.23 and 3.17 | OD450 nm [26]: 0.079 and 0.07
B3: 154F10G8 (murine hybridoma antibody) (antibody, V domains shown)
VH: QVQLQQPGAELVKPGASVKLSCKASGYTFTSYWITWVKQRPGQGLEWIGDIYPGSGSTFYNEKFKSEATLTVDTSSSTAYMQLSSLTSEDSAVFYCSTETTLGYWGQGTTLTVSS
VL: DVLMTQTPLSLPVSLGDQASISCRSSQSIVHNNGNTYLEWYLQKPGQSPKLLIYKVSNRFSGVPDRFSGSGSGTDFTLKISRVEAEDLGVYYCFQGSHVPFTFGSGTKLEIK
